# Test results as given in article doi:10.1101/2021.10.27.466211 (bioRxiv, 2021).
# B1: PomA-L22C/T33C (natural protein, Vibrio alginolyticus, UniProt O06873 1-253, looked up)
# chain: MDLATLLGLIGGFAFVIMAMVCGGSIGMFVDVCSILIVVGGSIFVVLMKFTMGQFFGATKIAGKAFMFKADEPEDLIAKIVEMADAARKGGFLALEEMEINNTFMQKGIDLLVDGHDADVVRAALKKDIALTDERHTQGTGVFRAFGDVAPAMGMIGTLVGLVAMLSNMDDPKAIGPAMAVALLTTLYGAILSNMVFFPIADKLSLRRDQETLNRRLIMDGVLAIQDGQNPRVIDSYLKNYLNEGKRALEIDE
# Target: the molecule itself
# Experiment: cross-linking
protein,measurement,value
B1,stoichiometry N,≤ 5
